Assay results published in publication PMC9841404, “Werner syndrome protein works as a dimer for unwinding and replication fork regression”.

What was measured:
[1] = target: T1, f:GFP-WRN (Werner syndrome protein) (Homo sapiens, UniProt Q14191 1-1432); assay: single-molecule TIRF GFP photobleaching; no ATP; dimer preferred, heterogeneous up to 4 steps; 1 nM RPA did not change conclusion; Binding buffer, pH and temperature not in the material; 24 nM GFP-WRN in the forked-DNA unwinding assay (1 nM RPA); NaCl tested at 15, 50 and 150 mM on the replication fork; GFP imaging without oxygen scavenger; conditions: protein: recombinant; tags: N-terminal FLAG and GFP; chain copies: 2; label: Cy3 and Cy5 in the single-stranded overhangs; 5' biotin on bottom strand; fork 1:2, 3' ssDNA arm on top and 5' ssDNA arm on bottom
T1 sequence (Q14191 whole entry): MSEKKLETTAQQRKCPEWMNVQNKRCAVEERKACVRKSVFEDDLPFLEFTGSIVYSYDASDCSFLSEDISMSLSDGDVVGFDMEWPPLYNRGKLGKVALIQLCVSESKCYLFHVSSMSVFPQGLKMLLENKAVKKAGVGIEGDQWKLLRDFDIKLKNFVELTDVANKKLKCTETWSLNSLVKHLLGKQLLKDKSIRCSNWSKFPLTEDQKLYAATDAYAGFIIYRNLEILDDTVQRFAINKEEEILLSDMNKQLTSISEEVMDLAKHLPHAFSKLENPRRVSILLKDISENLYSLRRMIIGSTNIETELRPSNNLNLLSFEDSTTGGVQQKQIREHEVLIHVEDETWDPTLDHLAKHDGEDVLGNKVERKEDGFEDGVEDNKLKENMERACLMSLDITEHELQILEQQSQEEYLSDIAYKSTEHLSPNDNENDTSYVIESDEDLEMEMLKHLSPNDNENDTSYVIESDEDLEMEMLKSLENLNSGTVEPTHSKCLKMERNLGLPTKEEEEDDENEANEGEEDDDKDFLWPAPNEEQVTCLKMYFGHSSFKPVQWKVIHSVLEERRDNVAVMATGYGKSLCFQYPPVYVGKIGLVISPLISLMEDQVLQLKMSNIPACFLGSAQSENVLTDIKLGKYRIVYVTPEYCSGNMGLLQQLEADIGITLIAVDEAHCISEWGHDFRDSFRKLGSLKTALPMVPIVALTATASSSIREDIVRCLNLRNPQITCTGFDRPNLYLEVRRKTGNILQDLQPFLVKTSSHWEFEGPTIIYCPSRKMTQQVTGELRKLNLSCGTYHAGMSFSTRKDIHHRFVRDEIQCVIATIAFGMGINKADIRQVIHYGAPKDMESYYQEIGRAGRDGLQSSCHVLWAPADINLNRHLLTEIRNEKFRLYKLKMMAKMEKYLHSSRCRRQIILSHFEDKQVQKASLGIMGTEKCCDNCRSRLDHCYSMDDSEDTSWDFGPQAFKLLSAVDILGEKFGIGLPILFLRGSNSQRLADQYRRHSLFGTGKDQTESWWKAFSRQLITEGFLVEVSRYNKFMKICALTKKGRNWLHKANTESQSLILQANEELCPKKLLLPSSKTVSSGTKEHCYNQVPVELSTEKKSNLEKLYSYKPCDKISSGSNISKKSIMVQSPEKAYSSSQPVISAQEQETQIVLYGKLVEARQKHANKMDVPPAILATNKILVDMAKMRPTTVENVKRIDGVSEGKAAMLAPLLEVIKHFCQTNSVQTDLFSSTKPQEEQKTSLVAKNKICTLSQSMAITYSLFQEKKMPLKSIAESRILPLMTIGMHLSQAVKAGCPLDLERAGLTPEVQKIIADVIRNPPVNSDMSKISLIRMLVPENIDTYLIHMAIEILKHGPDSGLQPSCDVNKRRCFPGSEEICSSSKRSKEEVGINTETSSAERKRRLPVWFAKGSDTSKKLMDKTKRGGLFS

[2] = target: T1, f:GFP-WRN (Werner syndrome protein); assay: single-molecule TIRF GFP photobleaching; no ATP; tetramer (binomial n=4); Binding buffer, pH and temperature not in the material; 24 nM GFP-WRN in the forked-DNA unwinding assay (1 nM RPA); NaCl tested at 15, 50 and 150 mM on the replication fork; GFP imaging without oxygen scavenger; conditions: protein: recombinant; tags: N-terminal FLAG and GFP; chain copies: 2; label: Cy3 and Cy5 FRET pair; 5' biotin on leading parent; four-strand fork 1:3 2:4 3:4; 11-nt leading gap, 2-nt lagging gap; heterologous bases near junction
[3] = target: T1, f:GFP-WRN (Werner syndrome protein); assay: single-molecule TIRF GFP photobleaching; 1 mM ATP-Mg2+, 2 min; active molecules dimeric; Binding buffer, pH and temperature not in the material; 24 nM GFP-WRN in the forked-DNA unwinding assay (1 nM RPA); NaCl tested at 15, 50 and 150 mM on the replication fork; GFP imaging without oxygen scavenger; conditions: protein: recombinant; tags: N-terminal FLAG and GFP; chain copies: 2; label: Cy3 and Cy5 FRET pair; 5' biotin on leading parent; four-strand fork 1:3 2:4 3:4; heterologous distal arm ends

B1: Forked DNA (Figure 1A) (structured_DNA)
DNA 1: GAGAAGCACGCTGCCGAATTCTACCAGTGCCTTGCTAGGACATGTTTGCCTTTTTTTTTTTTTTTTTTTTTTTTTTTTTT
DNA 2: TTTTTTTTTTTTTTTTTTTTTTTTGGCAAACATGTCCTAGCAAGGCACTGGTAGAATTCGGCAGCGTGCTTCTC
modifications: amino C6 dT at dye sites
binding result [1]: binds

B2: Model replication fork (Figure 1B) (structured_DNA)
DNA 1: TCGACAGGTCATGGCCGTACATGATATCCTCGAGCGGTCCTGTTGCAACTTA
DNA 2: TCAGAGTGTTAAGTTGCAACAGGACCGCTCGAGGATATCATGTACGGCCATGACCTGTCG
DNA 3: TGTTAACCCTAACCCTAAGAATTCGGCTTAAGTGAGTGTTAAGTTGCAACAGGACCGCTCGAGGATATCATGTACGGCCATGACCTGTCGA
DNA 4: CGACAGGTCATGGCCGTACATGATATCCTCGAGCGGTCCTGTTGCAACTTAACACTCTGAATAGCCGAATTCTTAGGGTTAGGGTTAACA
modifications: amino C6 dT at dye sites of the daughter strands
binding result [2]: binds

B3: Replication fork with 15 bp non-homologous region (Figure 3D) (structured_DNA)
DNA 1: TCGACAGGTCATGGCCGTACATGATATCCTCGAGCGGTCCTGTTGC
DNA 2: TCAGAGTGTGCAACAGGACCGCTCGAGGATATCATGTACGATAGCTTGGCCGCAT
DNA 3: TGTTAACCCTAACCCTAAGAATTCGGCTTAAGTGAGTGTGCAACAGGACCGCTCGAGGATATCATGTACGGCCATGACCTGTCGA
DNA 4: ATGCGGCCAAGCTATCGTACATGATATCCTCGAGCGGTCCTGTTGCACACTCTGAATAGCCGAATTCTTAGGGTTAGGGTTAACA
modifications: amino C6 dT at dye sites of the daughter strands
binding result [3]: binds
